Non-standard residues stand in square brackets, D forms with d. No end group written: not given here. pT = C[C@@H](OP(=O)(O)O)[C@H](N)C(=O)O; pS = N[C@@H](COP(=O)(O)O)C(=O)O
Legend:
HLA-B*0702 = target: T1, HLA-B*0702 (Homo sapiens, UniProt P01889); assay: Phosphopeptides presented in association with class I molecules (HLA-B*0702) on cancer cells: melanoma and/or leukemia; set-up: key: Melanoma (M); Leukemia (L); L/M: Melanoma (M) and/or Leukemia (L); conditions: cancer type on which the HLA-B*0702 phosphopeptide is presented
T1 construct: endogenous in cells; host or cells: melanoma and/or leukemia cells

[1] = target: T2, HLA-B*0702 (HLA-B7) peptide complexes (Homo sapiens, UniProt P01889); assay: HLA-B*0702 phosphopeptides associated with leukemia samples (isolation of HLA-associated peptides); conditions: for Copies/cell class, ALL1: acute lymphoblastic leukemia sample ALL1; for Copies/cell class, B Cell: healthy B cells; for Copies/cell class, T Cell: healthy T cells; for Copies/cell class, HCL1: hairy cell leukemia sample HCL1
T2 construct: endogenous in cells; host or cells: JY B-lymphoblastoid line; primary ALL, CLL, HCL, AML samples; bone marrow; healthy B and T cells
Description: To identify naturally processed tumor-associated phosphopeptides, HLA-A*0201 (HLA-A2) and HLA-B*0702 (HLA-B7) peptide complexes from four (4) chronic lymphocytic leukemia (CLL) tumor samples, a mantle cell lymphoma sample (MCL), one acute lymphoblastic leukemia (ALL), and an acute myeloid leukemia (AML) sample, in addition to healthy splenic T and B-cells and the cultured lymphoblastoid cell line JY were isolated. These efforts yielded 10 HLA-A2-restricted and 86 HLA-B7-restricted phosphopeptide antigens (see Tables 6 and 7).
All cell lines were grown at 37° C. with 5% CO2 in growth medium consisting of RPMI 1640 supplemented with 10% FCS and two mM L-glutamine. Blood or leukapheresis samples were taken from patients with high-burden leukemia in heparin. Tumor cells were recovered by layering the blood over density gradient (Ficoll) and collecting the tumor layer following centrifugation. The tumor was washed in tris-buffered saline (TBS). The purity of the tumor was assessed using flow cytometry and was >98% pure in all cases. For healthy T and B-cell populations, a normal spleen sample processed and tonsil sample was collected and lymphocytes released through mechanical disruption. Mononuclear cells were isolated using a density gradient and 10^9 T cells isolated using anti-CD19 or anti-CD3 microbeads (Miltenyi Biotec Inc., Auburn, California, United States of America) with purity >98% were obtained. Bone marrow sample was obtained from an elective orthopedic procedure and red cell-depleted using hypotonic lysis. This sample was not processed further.
Class I MHC molecules were immunoaffinity purified from the JY cell line or from primary tumor samples, and their associated peptides were extracted as previously described in Zarling et al., 2006. Approximately 1.2-14×10^9 cells were lysed in a solution containing 20 mM Tris-HCl (pH 8.0), 150 mM NaCl, 1% CHAPS, one mM PMSF, five μg/mL aprotinin, 10 μg/mL leupeptin, 10 μg/mL pepstatin A, 1 μg/ml calyculin A, and phosphatase inhibitor (cocktails I and II; Sigma-Aldrich). The mixture was subjected to centrifugation and the resulting supernatant was passed over protein A sepharose pre-loaded with the HLA-A2-specific antibody BB7.2 or HLA-B7-specific antibody MEL Peptides were eluted from the purified class I MHC molecules with 10% acetic acid.

L/M (HLA-B*0702)	Substance	other results
M	266 (APRKG[pS]FSALM; listed as Homo sapiens) [compound 266]	–
L/M	267 (APRRY[pS]SSL; listed as Homo sapiens) [compound 267]	Copies/cell class, AML1 [1]: 1 (1 indicates <1 copy/cell)
M	268 (APR[pS]PPPSRP; listed as Homo sapiens) [compound 268]	–
L	269 (EPKRR[pS]ARL; listed as Homo sapiens) [compound 269]	Copies/cell class, AML1 [1]: 1 (1 indicates <1 copy/cell)
L	270 (EPR[pS]PSHSM; listed as Homo sapiens) [compound 270]	Copies/cell class, AML1 [1]: 1 (1 indicates <1 copy/cell)
M	271 (FPH[pS]LLSVI; listed as Homo sapiens) [compound 271]	–
L	272 (FRR[pS]PTKSSL; listed as Homo sapiens) [compound 272]	Copies/cell class, AML1 [1]: 2 (2 indicates 1-5 copies/cell)
L	273 (FRR[pS]PTKSSLDY; listed as Homo sapiens) [compound 273]	Copies/cell class, AML1 [1]: 4 (4 indicates >25 copies per cell)
L	274 (FSI[pS]PVRL; listed as Homo sapiens) [compound 274]	Copies/cell class, ALL1 [1]: 4 (4 indicates >25 copies per cell); Copies/cell class, B Cell [1]: 2 (2 indicates 1-5 copies/cell); Copies/cell class, T Cell [1]: 2 (2 indicates 1-5 copies/cell)
M	275 (GAQPGRH[pS]V; listed as Homo sapiens) [compound 275]	–
L	276 (GPRSA[pS]LL[pS]L; listed as Homo sapiens) [compound 276]	–
M	277 (GPRSASLL[pS]L; listed as Homo sapiens) [compound 277]	Copies/cell class, AML1 [1]: 4 (4 indicates >25 copies per cell)
M	278 (GPR[pS]ASLLSL; not fully specified; listed as Homo sapiens) [compound 278]	Copies/cell class, AML1 [1]: 3 (3 indicates 6-25 copies per cell)
M	279 (HPR[pS]PTPTL; listed as Homo sapiens) [compound 279]	–
M	280 (HPRSP[pT]PTL; listed as Homo sapiens) [compound 280]	–
M	281 (KAR[pS]PGRAL; listed as Homo sapiens) [compound 281]	–
L	282 (KPA[pS]PARRL; listed as Homo sapiens) [compound 282]	Copies/cell class, CLL2 [1]: 1 (1 indicates <1 copy/cell); Copies/cell class, JY [1]: 1 (1 indicates <1 copy/cell); Copies/cell class, ALL1 [1]: 1 (1 indicates <1 copy/cell); Copies/cell class, HCL1 [1]: 1 (1 indicates <1 copy/cell)
L	283 (KPA[pS]PKFIVTL; listed as Homo sapiens) [compound 283]	Copies/cell class, AML1 [1]: 2 (2 indicates 1-5 copies/cell)
L	284 (KPPH[pS]PLVL; listed as Homo sapiens) [compound 284]	Copies/cell class, ALL1 [1]: 4 (4 indicates >25 copies per cell); Copies/cell class, T Cell [1]: 2 (2 indicates 1-5 copies/cell)

L/M (HLA-B*0702)	Substance	other results
L	285 (KPP[pS]PEHQSL; listed as Homo sapiens) [compound 285]	Copies/cell class, ALL1 [1]: 1 (1 indicates <1 copy/cell)
L	286 (KPP[pS]PSPIEM; listed as Homo sapiens) [compound 286]	–
L	287 (KPP[pT]PGASF; listed as Homo sapiens) [compound 287]	Copies/cell class, ALL1 [1]: 3 (3 indicates 6-25 copies per cell); Copies/cell class, B Cell [1]: 1 (1 indicates <1 copy/cell); Copies/cell class, T Cell [1]: 2 (2 indicates 1-5 copies/cell)
L	288 (KPPYRSH[pS]L; listed as Homo sapiens) [compound 288]	Copies/cell class, AML1 [1]: 1 (1 indicates <1 copy/cell); Copies/cell class, CLL2 [1]: 1 (1 indicates <1 copy/cell); Copies/cell class, JY [1]: 2 (2 indicates 1-5 copies/cell); Copies/cell class, ALL1 [1]: 2 (2 indicates 1-5 copies/cell); Copies/cell class, HCL1 [1]: 2 (2 indicates 1-5 copies/cell)
L	289 (KPQTRGK[pT]F; listed as Homo sapiens) [compound 289]	Copies/cell class, ALL1 [1]: 1 (1 indicates <1 copy/cell); Copies/cell class, HCL1 [1]: 1 (1 indicates <1 copy/cell)
M	290 (KPRPPPL[pS]P; listed as Homo sapiens) [compound 290]	–
L	291 (KPR[pS]PDHVL; listed as Homo sapiens) [compound 291]	Copies/cell class, CLL2 [1]: 1 (1 indicates <1 copy/cell); Copies/cell class, CLL4 ([1]; CLL4): 1 (1 indicates <1 copy/cell); Copies/cell class, ALL1 [1]: 1 (1 indicates <1 copy/cell); Copies/cell class, HCL1 [1]: 1 (1 indicates <1 copy/cell)
L/M	292 (KPR[pS]PPRAL; listed as Homo sapiens) [compound 292]	–
M	293 (KPR[pS]PPRALV; listed as Homo sapiens) [compound 293]	–
M	294 (KPR[pS]PPRALVL; listed as Homo sapiens) [compound 294]	–
L	298 (LPIFSRL[pS]I; listed as Homo sapiens) [compound 298]	–
M	299 (LPK[pS]PPYTAF; listed as Homo sapiens) [compound 299]	–
M	300 (LPRGS[pS]PSVL; listed as Homo sapiens) [compound 300]	–
M	301 (MPRQP[pS]ATRL; listed as Homo sapiens) [compound 301]	–
M	311 (RPA[pT]PTSQF; listed as Homo sapiens) [compound 311]	–
L	316 (RPI[pS]PGLSY; listed as Homo sapiens) [compound 316]	–
M	326 (RPRG[pS]QSLL; listed as Homo sapiens) [compound 326]	–
M	329 (RPRR[pS]STQL; listed as Homo sapiens) [compound 329]	–
M	332 (RPRSL[pS]SPTVTL; listed as Homo sapiens) [compound 332]	–

L/M (HLA-B*0702)	Substance	other results
M	335 (RPR[pS]PPPRAP; listed as Homo sapiens) [compound 335]	–
L	340 (RPRPV[pS]PSSL; listed as Homo sapiens) [compound 340]	–
M	341 (RPSGRRE[pS]L; listed as Homo sapiens) [compound 341]	–
L	345 (RPS[pT]PKSDSEL; listed as Homo sapiens) [compound 345]	–
M	353 (RRL[pS]GPLHTL; listed as Homo sapiens) [compound 353]	–
M	354 (RRP[pS]YTLGM; listed as Homo sapiens) [compound 354]	–
M	355 (RR[pS][pS]FLQVF; listed as Homo sapiens) [compound 355]	–
M	357 (RR[pS]SQSWSL; listed as Homo sapiens) [compound 357]	–
M	362 (RSR[pS]PRPAL; listed as Homo sapiens) [compound 362]	–
M	364 (RTF[pS]PTYGL; listed as Homo sapiens) [compound 364]	–
M	365 (RTR[pS]PSPTL; listed as Homo sapiens) [compound 365]	–
M	369 (SPFKRQL[pS]L; listed as Homo sapiens) [compound 369]	–
M	372 (SPK[pS]PTAAL; listed as Homo sapiens) [compound 372]	–
M	373 (SPRER[pS]PAL; listed as Homo sapiens) [compound 373]	–
L/M	375 (SPRR[pS]RSI[pS]L; listed as Homo sapiens) [compound 375]	–
M	380 (SPRTPV[pS]PVKF; listed as Homo sapiens) [compound 380]	–
M	381 (SPR[pT]PV[pS]PVKF; listed as Homo sapiens) [compound 381]	–
M	384 (SPVVHQ[pS]L; listed as Homo sapiens) [compound 384]	–
M	390 (YPS[pS]PRKL; listed as Homo sapiens) [compound 390]	–
